Experimental data: CN107043422A (CHENGDU KANGHONG BIOLOGICAL TECH CO LTD, dated 2017)

T1: 大鼠血清中的补体因子D (rat serum complement factor D) (大鼠 (rat), UniProt P32038 26-263)
T1 sequence (looked up): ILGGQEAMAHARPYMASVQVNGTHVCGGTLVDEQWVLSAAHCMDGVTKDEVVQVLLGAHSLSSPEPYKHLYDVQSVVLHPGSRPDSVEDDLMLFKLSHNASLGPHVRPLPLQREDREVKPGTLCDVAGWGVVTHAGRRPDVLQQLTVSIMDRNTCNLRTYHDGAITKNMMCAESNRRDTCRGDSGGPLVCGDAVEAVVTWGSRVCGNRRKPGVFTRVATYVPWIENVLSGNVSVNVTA


Assays:
[1] = biological target: T1, 大鼠血清中的补体因子D (rat serum complement …); test: cell-based or functional assay
人CFD蛋白 = biological target: T2, 人CFD蛋白 (人 (human), UniProt P00746 26-253, limits assumed); test: BLI (Octet QK), human CFD on Ni-NTA biosensor, KH-A at 125 nM in rabbit vitreous fluid
T2 construct: also called human complement factor D
T2 sequence (P00746 26-253 limits assumed): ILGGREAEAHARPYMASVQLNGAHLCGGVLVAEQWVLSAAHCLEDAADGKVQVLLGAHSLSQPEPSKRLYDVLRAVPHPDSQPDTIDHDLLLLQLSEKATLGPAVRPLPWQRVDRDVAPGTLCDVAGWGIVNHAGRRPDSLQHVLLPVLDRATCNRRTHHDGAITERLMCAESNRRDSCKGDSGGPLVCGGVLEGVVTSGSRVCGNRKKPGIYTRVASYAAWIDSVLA

猪CFD [2] = biological target: T3, 猪CFD (猪 (pig), UniProt P51779 27-259, limits assumed); test: BLI (Octet QK), antibody on Protein A biosensor, CFD transfection supernatant in solution
T3 construct: Transiently expressed in DG44 cells; The culture supernatant was used unpurified in the Octet assay; also called pig CFD; 猪(GeneID:396877)
T3 sequence (P51779 other isoform, or with tags, fused parts or gaps limits assumed): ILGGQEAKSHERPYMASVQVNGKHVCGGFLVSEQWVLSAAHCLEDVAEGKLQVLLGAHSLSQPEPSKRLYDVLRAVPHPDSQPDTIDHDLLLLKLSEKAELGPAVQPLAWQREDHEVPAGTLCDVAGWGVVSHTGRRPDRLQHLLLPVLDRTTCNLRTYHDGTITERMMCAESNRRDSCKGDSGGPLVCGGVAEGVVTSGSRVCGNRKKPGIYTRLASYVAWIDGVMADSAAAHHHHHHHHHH

猪CFD [3] = biological target: T3, 猪CFD; test: BLI (Octet QK), His-tagged CFD supernatant on Ni-NTA biosensor, Fab at 10 μg/ml

IC50, 全长抗体抑制大鼠血清致兔红细胞溶血 (ACH50法, 补体旁路途径活性) [1] | binding result (人CFD蛋白) | binding result (猪CFD [2]) | binding result (猪CFD [3]) | Binder
3860 µg/mL | binds | binds |  | KH-A (antibody, human IgG4 S228P, kappa, V domains shown, Full-length humanized anti-complement factor D antibody expressed in CHO-S cells; also called 抗体KH-A; 全长抗体KH-A) VH: QVQLVQSGPELKKPGASVKVSCKASGYTFTNYGMNWVRQAPGQGLEWMGWINTYTGETTYADDFKGRFVFSLDTSVSTAYLQISSLKAEDTAVYYCEREGGVNYWGQGTLVTVSS VL: DIQVTQSPSSLSASVGDRVTITCITSTDIDDDMNWYQQKPGKVPKLLISGGATLRPGVPSRFSGSGSGTDFTLTISSLQPEDVATYYCLQSDSLPYTFGQGTKLEIKR
 |  |  | binds | KH021 (Fab, V domains shown, Fab expressed in the E. coli periplasm; also called Fab抗体KH021) VH: QVQLVQSGPELKKPGASVKVSCKASGYTFTNYGMNWVRQAPGQGLEWMGWINTYTGETTYADDFKGRFVFSLDTSVSTAYLQISSLKAEDTAVYYCEREGGVNSWGQGTLVTVSS VL: DIQVTQSPSSLSASVGDRVTITCITSTDIDDDVNWYQQKPGKVPKLLISGGNTLRPGVPSRFSGSGSGTDFTLTISSLQPEDVATYYCMQSDSLPYTFGQGTKLEIKR
3960 µg/mL |  | binds |  | KH-F (antibody, human IgG4 S228P, kappa, V domains shown, also called 全长抗体KH-F) VH: QVQLVQSGPELKKPGASVKVSCKASGYTFTNYGMNWVRQAPGQGLEWMGWINTYTGETTYADDFKGRFVFSLDTSVSTAYLQISSLKAEDTAVYYCEREGGVNSWGQGTLVTVSS VL: DIQVTQSPSSLSASVGDRVTITCITSTDIDDDVNWYQQKPGKVPKLLISGGNTLRPGVPSRFSGSGSGTDFTLTISSLQPEDVATYYCMQSDSLPYTFGQGTKLEIKR
 |  |  | binds | KH027 (Fab, V domains shown, Fab expressed in the E. coli periplasm; also called Fab抗体KH027) VH: QVQLVQSGPELKKPGASVKVSCKASGYTFTNYGMNWVRQAPGQGLEWMGWINTYTGETTYADDFKGRFVFSLDTSVSTAYLQISSLKAEDTAVYYCEREGGVNYWGQGTLVTVSS VL: DIQVTQSPSSLSASVGDRVTITCITSTDIDDDMNWYQQKPGKVPKLLISGGATLRPGVPSRFSGSGSGTDFTLTISSLQPEDVATYYCLQSDSLPYTFGQGTKLEIKR
